Test results taken from the supplement of paper PMC12042874.
± gives the uncertainty stated by the source.

Assay: amyloid nucleation score (Sup35N fusion, yeast selection) (log enrichment); library NNK2; higher = more nucleation; inactive = no reads after selection
Method in brief: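 The nucleation score is a DiMSum log enrichment of output over input reads, centred on the mode score of non-aggregating sequences. Sequences under 100 input reads were excluded, and reads came from Illumina sequencing of plasmid inserts. Psi-negative yeast expressing Sup35N fused to peptides of 20 random codons were induced with 100 μM copper sulfate for 24 hours and grown 7 days at 30°C on medium lacking adenine and uracil. Random libraries had three technical output replicates.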

Substance | amyloid nucleation score
GKVGWDCCISQIYCLDLFIP | 8.292 ± 0.047
GKYCYPL | -0.81 ± 0.32
GLAMFKYIMAIVRNF | -0.855 ± 0.37
GLDMDGSVLPFVFYRSMYGE | 0.136 ± 0.55
GLFCSLLCLVGAVSEKT | 5.26 ± 0.086
GLFSSGRFVSADSM | -0.368 ± 0.54
GLGMGDFCILVKLKANVSRC | -0.266 ± 1
GLGSPLHIWNIFVRRWYHRY | inactive
GLLLGMVFFCGSSTTNMGGI | 5.902 ± 0.051
GLLPFGISAMNLRFHQGVAR | -0.359 ± 0.2
GLMMPYL | 0.062 ± 0.39
GLNLSREYYNLFEVEVHADT | -0.178 ± 0.55
GLNYIARMSQN | 0.392 ± 0.3
GLPPVC | 0.851 ± 0.22
GLPVCYNRVT | -1.22 ± 1
GLSAIPFTDG | -0.722 ± 0.45
GLTLFVRSLALRNYVCDWSP | 0.149 ± 0.36
GLVLWRRHFKAAASVSMQSW | 0.216 ± 0.4
GLVSLLYGY | 0.185 ± 0.34
GLWVSHEVCIGCVF | inactive
GLYVLYDNINWDERTRALSG | -0.728 ± 0.48
GLYYASYNN | -1.63 ± 0.5
GMESSMVRNVEHVKERVYIE | 3.6 ± 0.1
GMMLPVFMIFIRRACINYSL | inactive

Substance | amyloid nucleation score
GMRADSYCVRVGWFLCQNIN | 7.002 ± 0.07
GMRSCYWCEPSYCWASA | 2.9 ± 0.066
GMTEWVGLAQERIYAWAKSE | 0.517 ± 0.36
GNGLVMLKTVHLWVLRDVLG | 0.839 ± 0.24
GNLDDTSLYCLYSLVSSRCS | 0.373 ± 0.29
GNMVFAPCDL | 1.07 ± 0.2
GNRFNRRLWSQATILEF | -0.166 ± 0.76
GNSISFVYQSLICFNCDLSV | 7.453 ± 0.024
GNSLNSYLSE | -0.346 ± 0.42
GNVWILIYNV | 6.164 ± 0.057
GNYHFCRERGRVACW | -0.378 ± 1
GPDLESFLRVIMQNFHDTKK | -1.54 ± 0.41
GPFLMSVTLVYLFVFMFERL | -0.769 ± 0.36
GPISVKRYL | 1.64 ± 0.35
GPLRNEASGIWKKPGQCMTD | -0.813 ± 0.76
GPNDWRNCFRD | 0.401 ± 0.56
GQFGVCITSPARQLSYD | inactive
GQPRLRSY | 3.89 ± 0.1
GQWRKGAYMVC | 0.477 ± 0.34
GQYKTGVRGSRLNLPLMLTE | 0.328 ± 0.19
GRCWI | 1.39 ± 0.24
GRDNYSWCSRVEPCKRNGAL | 0.103 ± 0.43
GRELRTVRNAGPFDQWVGVS | 5.79 ± 0.086
GRFKITVTRYANVYSMLRVI | 1.02 ± 0.49

Substance | amyloid nucleation score
GRLLFAWLYLCDYGGYIMRV | -0.081 ± 1.1
GRRMIRAERTIRLIIHVRSL | 0.767 ± 0.6
GRSFFMF | 2.5 ± 0.091
GRTCVRRGQAE | 0.909 ± 0.47
GRTVQIMDRVFS | -1.12 ± 0.76
GRVISCVGLTAFNKAVGSCR | 0.626 ± 0.42
GRVNLDRCSSWVGWFVGCLL | -1.09 ± 0.78
GRWVNCKTVVLFSSDRRQAR | 3.36 ± 0.14
GRYVNCGRSLRICSINLTKI | -1.31 ± 0.55
GSAFGGRRLFEGLRGGIREW | 0.665 ± 0.4
GSDAVR | 2.7 ± 0.082
GSFSGKYPRHR | -0.266 ± 1
GSGGWLAGHKTVK | 0.174 ± 1
GSICAHGECF | 0.57 ± 0.81
GSIYTCCGAGRKQNVGPKYL | 2.25 ± 0.1
GSLARSTD | 1.25 ± 0.15
GSLKCDAHLG | 0.339 ± 0.18
GSLLDVTHRRKVLSKSMRGL | 0.016 ± 0.35
GSNCIEVFRGWVKFGMDCFW | inactive
GSPLLVNDQSDGMYTSEISF | -1.32 ± 1.1
GSRARNLIASAQYYNG | inactive
GSRDHKPWTNRMWFTYTVIR | 0.028 ± 0.17
GSRYN | 0.634 ± 0.54
GSRYTEKIPGNRNRSRISL | -0.484 ± 0.35
